Measurements reported in PMC12594620, “The Role of the [2Fe‐2S] Cluster of Escherichia coli IscR in Responding to Redox‐Cycling Agents”.

Legend:
[1] = biological target: T1, [2Fe-2S]-IscR (wild type, anaerobically isolated) (Escherichia coli K12, UniProt P0AGK8 1-162); experiment: fluorescence anisotropy; [2Fe-2S]1+ cluster, anaerobic, no PMS; apparent Kd; Anisotropy: 40 mM Tris-Cl pH 7.9, 30 mM KCl, 5% glycerol, anaerobic unless stated, temperature not stated for the binding step; EMSA: 40 mM Tris-Cl pH 7.9, 150; details: protein: recombinant; chain copies: 2; label: 5' Texas Red on strand 1; blunt
T1 sequence: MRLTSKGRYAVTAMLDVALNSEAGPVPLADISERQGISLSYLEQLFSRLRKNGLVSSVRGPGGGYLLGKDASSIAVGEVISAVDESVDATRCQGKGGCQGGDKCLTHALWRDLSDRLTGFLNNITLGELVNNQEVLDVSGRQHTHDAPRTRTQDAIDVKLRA

[2] = biological target: T1, [2Fe-2S]-IscR (wild type, anaerobically …); experiment: fluorescence anisotropy; air 15 min, then returned to anaerobic chamber and assayed anaerobically; Anisotropy: 40 mM Tris-Cl pH 7.9, 30 mM KCl, 5% glycerol, anaerobic unless stated, temperature not stated for the binding step; EMSA: 40 mM Tris-Cl pH 7.9, 150; details: protein: recombinant; chain copies: 2; label: 5' Texas Red on strand 1; blunt

B1: iscRB type 1 site 30 bp (dsDNA)
DNA 1: AAATAGTTGACCATTTTACTCGGGAATGTC
DNA 2: GACATTCCCGAGTAAAATGGTCAACTATTT
With B1 the Kd [1] was 22 nM and the Kd [2] was 26 nM.
